This is an account of results in patent publication US20170226211A1 (AGENCY OR SCIENCE TECHNOLOGY AND RESEARCH, published 2017).

For test [1], the target named is T1, mouse CTLA-4 (mouse, UniProt P09793 36-161, limits assumed).
T1 construct: construct not described; also called murine CTLA-4; the mouse protein
Kind of test: avidity ELISA, mouse CTLA-4 coated, antibody titrated. As for the experimental part: (§1) The response curve was plotted (see FIG. 10), and EC50 was calculated.
On the technique in general: An ELISA detects its analyte on a solid surface through an enzyme-linked reagent.

The target in test [2] is T2, human CTLA-4 (human, UniProt P16410 36-161, limits assumed). Kind of test: cell-based or functional assay.
Test [3] deals with T1, mouse CTLA-4. Kind of test: affinity ELISA, antibody coated, mouse CTLA-4 titrated; 2C8 IgG1 with LALA mutation (L234A, L235A). An excerpt: (§2) The “LALA” mutation refers to mutation of leucine residues at positions 234 and […] of the of the Fc region to alanine (i.e. L234A, L235A); this mutation is known to weaken interaction between Fc and Fc-γR, and therefore to prevent ADCC activity (see e.g. Hezareh et al., J Virol (2001) 75(24):12161-12168).

In test [4] the target is T3, Cynomolgus/Rhesus CTLA-4 (cynomolgus/rhesus).
T3 construct: Printed as one protein 'Cynomolgus/Rhesus CTLA-4'
Kind of test: ELISA, antibody coated, Cynomolgus/Rhesus CTLA-4 titrated.

In test [5] the target is T2, human CTLA-4. Kind of test: affinity ELISA, antibody coated, human CTLA-4 titrated.
The target in test [6] is T2, human CTLA-4. Kind of test: SPR, antibody immobilised on chip, human CTLA-4 flowed over. A general note: In SPR one partner is held on a chip, and binding of the other changes the refractive index at the surface.
For test [7], the target named is T1, mouse CTLA-4. Kind of test: affinity ELISA, antibody coated, mouse CTLA-4 titrated; 2C8 IgG1.
From the text: as §2

The target of test [8] is T4, Human CD28 conjugated to human Fc (human, UniProt P10747 19-152).
T4 construct: not shown: human Fc
Kind of test: ELISA, human CD28-human Fc coated, antibody titrated.

For test [9], the target named is T5, mouse CTLA-4 expressed on HEK-293.6E cells (mouse, UniProt P09793 36-223).
T5 construct: whole, on cells; also called cell surface-expressed mouse CTLA-4
Kind of test: flow cytometry on HEK-293.6E cells transfected with mouse CTLA-4. Background: Flow cytometry measures light scatter and fluorescence of single cells or particles in a stream.

In test [10] the target is T6, human CTLA-4 expressed on HEK-293.6E cells (human, UniProt P16410 36-223).
T6 construct: whole, on cells; also called cell surface-expressed human CTLA-4
Kind of test: flow cytometry on HEK-293.6E cells transfected with human CTLA-4.

Test [11] concerns the target T2, human CTLA-4. Kind of test: avidity ELISA, human CTLA-4 coated, antibody titrated. The procedure: as §1
Test [12] addresses T2, human CTLA-4. Kind of test: ELISA, human CTLA-4 coated, Fab titrated.
In test [13] the target is T2, human CTLA-4. Kind of test: blocking ELISA: antibody pre-incubated with human CTLA-4, binding of CTLA-4 to coated CD80 detected.
Test [14] deals with T4, Human CD28 conjugated to human Fc. Kind of test: ELISA, human CD28-Fc coated, antibody titrated.
Test [15] has as its target T1, mouse CTLA-4. Kind of test: affinity ELISA, antibody coated, mouse CTLA-4 titrated; 2C8 IgG4.
From the text: as §2

Test [16] addresses T1, mouse CTLA-4. Kind of test: affinity ELISA, antibody coated, mouse CTLA-4 titrated; 2C8_gI IgG1.
From the text: as §2

T2 sequence (P16410 36-161 limits assumed): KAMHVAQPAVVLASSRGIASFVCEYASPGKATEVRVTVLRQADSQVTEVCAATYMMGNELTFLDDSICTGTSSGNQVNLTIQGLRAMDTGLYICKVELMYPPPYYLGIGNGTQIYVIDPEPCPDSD
T6 sequence (P16410 36-223): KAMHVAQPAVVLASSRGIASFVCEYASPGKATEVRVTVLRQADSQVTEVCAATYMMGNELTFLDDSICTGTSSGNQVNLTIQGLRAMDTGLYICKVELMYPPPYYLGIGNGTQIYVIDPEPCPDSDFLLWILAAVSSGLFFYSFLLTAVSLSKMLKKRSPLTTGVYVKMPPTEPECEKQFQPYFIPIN

B1: 2C8 IgG1 with LALA mutation (antibody, V domains shown)
VH: QVQLQQSGPGLVKPSQTLSLTCAISGDTVSSNTAAWNWIRQSPSRGLEWLGRTYYRSKWYSDYGLSVKSRMTINADTSKNQVSLHLNSVTPEDTAVYYCAREGSGGTLIYWGQGTLVTVSS
VL: DIQLTQSPSSVSASVGDRVTITCRATQGISSWLAWYQQKPGKAPKLLIYAASSLQSGVPSRFSGSGSGTEFTLTISSLQPEDFATYYCQQANTLPLFTFGPGTKVDIK
notes: also called 2C8 with LALA mutation; 2C8 with the mutation
With B1, the EC50 was found to be 8 nM in test [1] and 5.1 nM in test [3]. The “EC50, T cell reactivation assay (IL-2 secretion by Jurkat T cells)” value in test [2] lay in the range of 0.7 to 1.2 nM.

B2: anti-CTLA-4 antibody clone 2C8, human IgG1 (antibody, V domains shown)
VH: QVQLQQSGPGLVKPSQTLSLTCAISGDTVSSNTAAWNWIRQSPSRGLEWLGRTYYRSKWYSDYGLSVKSRMTINADTSKNQVSLHLNSVTPEDTAVYYCAREGSGGTLIYWGQGTLVTVSS
VL: DIQLTQSPSSVSASVGDRVTITCRATQGISSWLAWYQQKPGKAPKLLIYAASSLQSGVPSRFSGSGSGTEFTLTISSLQPEDFATYYCQQANTLPLFTFGPGTKVDIK
notes: also called 2C8 IgG; 2C8 IgG1
Turning to B2, the 50% effective concentration (EC50 (read off the curve)) in [4] is approximately 0.3 nM; in [9], approximately 6 nM; in test [10], approximately 4 nM. In addition, the 50% effective concentration (EC50) stood at 5 nM in [5], 4.9 nM in [1], 9.6 nM in test [7] and 0.0636 nM in test [11]. Besides, the Kd in [6] is 9.6 nM. For the same molecule, the binding result in test [8] was “no binding”.

B3: anti-CTLA-4 antibody clone 2C8, Fab (Fab, V domains shown)
VH: QVQLQQSGPGLVKPSQTLSLTCAISGDTVSSNTAAWNWIRQSPSRGLEWLGRTYYRSKWYSDYGLSVKSRMTINADTSKNQVSLHLNSVTPEDTAVYYCAREGSGGTLIYWGQGTLVTVSS
VL: DIQLTQSPSSVSASVGDRVTITCRATQGISSWLAWYQQKPGKAPKLLIYAASSLQSGVPSRFSGSGSGTEFTLTISSLQPEDFATYYCQQANTLPLFTFGPGTKVDIK
notes: Fab from a human antibody phage display library
Regarding B3, in [12], the “EC50 (read off the curve)” value was approximately 1 nM. The “IC50 (read off the curve)” value in [13] is approximately 5 nM. Besides, the binding result in [14] is “no binding (tested: 1000 nM)”.

B4: 2C8 IgG4 (antibody, V domains shown)
VH: QVQLQQSGPGLVKPSQTLSLTCAISGDTVSSNTAAWNWIRQSPSRGLEWLGRTYYRSKWYSDYGLSVKSRMTINADTSKNQVSLHLNSVTPEDTAVYYCAREGSGGTLIYWGQGTLVTVSS
VL: DIQLTQSPSSVSASVGDRVTITCRATQGISSWLAWYQQKPGKAPKLLIYAASSLQSGVPSRFSGSGSGTEFTLTISSLQPEDFATYYCQQANTLPLFTFGPGTKVDIK
notes: IgG4 format; also called IgG4 version of 2C8
In the case of B4, the EC50 in test [1] is 20.9 nM; in [15], 7 nM.

B5: anti-CTLA-4 antibody clone 2C8_gI, IgG1 (antibody, V domains shown)
VH: QVQLQQSGPGLVKPSQTLSLTCAISGDSVSSNTAAWNWIRQSPSRGLEWLGRTYYRSKWYSDYGLSVKSRITINPDTSKNQFSLQLNSVTPEDTAVYYCAREGSGGTLIYWGQGTLVTVSS
VL: DIQMTQSPSSVSASVGDRVTITCRATQGISSWLAWYQQKPGKAPKLLIYAASSLQSGVPSRFSGSGSGTDFTLTISSLQPEDFATYYCQQANTLPLFTFGPGTKVDIK
notes: IgG1; also called germline version of the antibody
In the case of B5, the values for the EC50 in [16] and in [1] were 23.5 nM and 77.1 nM, respectively.

B6: L3D10 (commercial mouse anti-human CTLA-4 IgG1) (antibody, V domains shown)
VH: QVQLKESGPGLVAPSQSLSITCTVSGFSLTSYGLSWVRQPPGKGLEWLGVIWYDGNTNFHSALISRLTISKDNSKSQVFLELNSLQTDDTATYYCAKTEGHYYGSNYGYYALDYWGQGTSVTVSS
VL: DIQMTQSPASLSVSVGETVTITCRASENIYSNLAWYQQKQGKSPQLLVYAATNLADGVPSRFSGSGSGTQYSLKINSLQSEDFGTYFCQHLWGTPYTFGGGTKLEIK
Take B6: the “IC50 (read off the curve)” value in [13] is approximately 1 nM.

Usually EC50 stands for the concentration at which the effect is half-maximal. A lower EC50 goes with higher potency in that assay. As a reminder, the EC50 (read off the curve) is the concentration at which the effect is half-maximal. High values mean weaker potency, low ones greater potency. A word on the Kd: it is the equilibrium constant for the complex coming apart. A low value points to higher affinity.
